This passage reports Kd results from publication PMC8357241.

In the series the test system is PARP1. Briefly: fluorescence polarization. To be noted: EMSA: 20 mM Hepes pH 7.8, 150 mM NaCl, 2 mM MgCl2, 0.5 mM TCEP, 0.05 mg/ml BSA; TIRF same salts with 1 mg/ml BSA, 1 mg/ml beta-casein, 500 nM SYTOX Orange ….

DNA dumbbell containing a SSB: the Kd was 71 nM.
